Measurements as given in doi:10.1101/2021.10.11.463801, “JIP3 regulates bi-directional organelle transport in neurons through its interaction with dynein and kinesin-1” (bioRxiv, 2021).

T1: mouse JIP3[186-505] (mouse, UniProt Q9ESN9-5 186-505)
T1 construct: mouse JIP3, residues 186-505 (holds the leucine zipper); numbers count on UniProt Q9ESN9-5; also called JIP3[186-505] wild type; source: E. coli (BL21, BL21-CodonPlus-RIL or Rosetta), purified
T1 sequence (looked up): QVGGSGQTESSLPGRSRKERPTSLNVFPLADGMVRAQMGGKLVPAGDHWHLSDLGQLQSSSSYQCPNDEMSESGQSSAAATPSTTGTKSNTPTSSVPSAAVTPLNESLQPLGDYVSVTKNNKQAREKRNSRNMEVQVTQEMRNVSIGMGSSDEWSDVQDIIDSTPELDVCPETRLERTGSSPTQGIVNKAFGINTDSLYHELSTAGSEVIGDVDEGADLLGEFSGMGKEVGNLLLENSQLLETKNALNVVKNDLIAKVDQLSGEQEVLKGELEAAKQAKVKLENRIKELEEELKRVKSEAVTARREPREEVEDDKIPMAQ


What was measured:
[1] = target: the molecule itself; assay: AUC; sedimentation velocity, 42'000 rpm, 20 °C; 50 mM HEPES, 100 mM NaCl, 0.5 mM TCEP, pH 7.5; c(S) by SEDFIT
[2] = target: T1, mouse JIP3[186-505]; assay: pull-down; GST-tagged bait on glutathione agarose resin; purified recombinant proteins mixed in 50 mM HEPES, 100 mM NaCl, 5 mM DTT, pH 7.5; 1 h at 4 °C; eluted with 15 mM reduced L-glutathione; SDS-PAGE with Coomassie Blue or immunoblot; details: both partners purified

| Binder | stoichiometry N [1] | binding result [2] |
| --- | --- | --- |
| JIP4[1-103] (domain or fragment, human, UniProt O60271-1 1-103, looked up, human JIP4, residues 1-103 (RH1 domain); UniProt O60271-1; Dimer by AUC; also called JIP4-RH1; RH1 domain of JIP4; source: E. coli (BL21, BL21-CodonPlus-RIL or Rosetta), purified) MELEDGVVYQEEPGGSGAVMSERVSGLAGSIYREFERLIGRYDEEVVKELMPLVVAVLENLDSVFAQDQEHQVELELLRDDNEQLITQYEREKALRKHAEEKF | 2 |  |
| JIP3[1-108] (domain or fragment, human, UniProt Q9UPT6-1 1-108, looked up, UniProt Q9UPT6-1; Dimer by AUC; also called JIP3-RH1; RH1 domain of JIP3; source: E. coli (BL21, BL21-CodonPlus-RIL or Rosetta), purified) MMEIQMDEGGGVVVYQDDYCSGSVMSERVSGLAGSIYREFERLIHCYDEEVVKELMPLVVNVLENLDSVLSENQEHEVELELLREDNEQLLTQYEREKALRRQAEEKF | 2 |  |
| JIP3[1-108] V60Q (domain or fragment, human, UniProt Q9UPT6-1 1-108, looked up, human JIP3, residues 1-108 (RH1 domain) with V60Q; UniProt Q9UPT6-1; Dimer by AUC; also called JIP3-RH1 V60Q; source: E. coli (BL21, BL21-CodonPlus-RIL or Rosetta), purified) MMEIQMDEGGGVVVYQDDYCSGSVMSERVSGLAGSIYREFERLIHCYDEEVVKELMPLVQNVLENLDSVLSENQEHEVELELLREDNEQLLTQYEREKALRRQAEEKF | 2 |  |
| GST-tagged KLC1[185-501] (domain or fragment, human, UniProt Q07866-1 185-501, looked up, human kinesin light chain 1 (KLC1), residues 185-501 (TPR domain); UniProt Q07866-1; also called KLC1 fragment; KLC1 TPR domain; source: E. coli (BL21, BL21-CodonPlus-RIL or Rosetta), purified; not shown: GST, N-terminal, kept) DDPGQGIQQQHSSAAAAAQQGGYEIPARLRTLHNLVIQYASQGRYEVAVPLCKQALEDLEKTSGHDHPDVATMLNILALVYRDQNKYKDAANLLNDALAIREKTLGKDHPAVAATLNNLAVLYGKRGKYKEAEPLCKRALEIREKVLGKDHPDVAKQLNNLALLCQNQGKYEEVEYYYQRALEIYQTKLGPDDPNVAKTKNNLASCYLKQGKFKQAETLYKEILTRAHEREFGSVDDENKPIWMHAEEREECKGKQKDGTSFGEYGGWYKACKVDSPTVTTTLKNLGALYRRQGKFEAAETLEEAAMRSRKQGLDNV |  | binds |
